# According to publication PMC8403083:
# B1: CD73 (5ʹ-Nucleotidase) (Homo sapiens) (protein)
# chain: WELTILHTNDVHSRLEQTSEDSSKCVNASRCMGGVARLFTKVQQIRRAEPNVLLLDAGDQYQGTIWFTVYKGAEVAHFMNALRYDAMALGNHEFDNGVEGLIEPLLKEAKFPILSANIKAKGPLASQISGLYLPYKVLPVGDEVVGIVGYTSKETPFLSNPGTNLVFEDEITALQPEVDKLKTLNVNKIIALGHSGFEMDKLIAQKVRGVDVVVGGHSNTFLYTGNPPSKEVPAGKYPFIVTSDDGRKVPVVQAYAFGKYLGYLKIEFDERGNVISSHGNPILLNSSIPEDPSIKADINKWRIKLDNYSTQELGKTIVYLDGSSQSCRFRECNMGNLICDAMINNNLRHTDEMFWNHVSMCILNGGGIRSPIDERNNGTITWENLAAVLPFGGTFDLVQLKGSTLKKAFEHSVHRYGQSTGEFLQVGGIHVVYDLSRKPGDRVVKLDVLCTKCRVPSYDPLKMDEVYKVILPNFLANGGDGFQMIKDELLRHDSGDQDINVVSTYISKMKVIYPAVEGRIK
# Assays:
# enzyme kinetics [1] = substrate: Nc1ncnc2c1ncn2[C@@H]1O[C@H](COP(=O)(O)O)[C@@H](O)[C@H]1O; experiment: enzyme kinetics; format: biochemical, Homo sapiens
# enzyme kinetics [2] = substrate: Nc1ccn([C@@H]2O[C@H](COP(=O)(O)O)[C@@H](O)[C@H]2O)c(=O)n1; experiment: enzyme kinetics; format: biochemical, Homo sapiens
protein,measurement,setting,value
B1,Km,enzyme kinetics [1],2.7 µM
same,Km,enzyme kinetics [2],45 µM
